Data on 1 molecule can be found in paper PMC11869757 (Drug Design, Development and Therapy, 2025).

The target in the assay is T1, CD122/IL-2Rβ with a His-tag (Sino Biological, 10696-H08B) (human, UniProt P14784).
T1 sequence: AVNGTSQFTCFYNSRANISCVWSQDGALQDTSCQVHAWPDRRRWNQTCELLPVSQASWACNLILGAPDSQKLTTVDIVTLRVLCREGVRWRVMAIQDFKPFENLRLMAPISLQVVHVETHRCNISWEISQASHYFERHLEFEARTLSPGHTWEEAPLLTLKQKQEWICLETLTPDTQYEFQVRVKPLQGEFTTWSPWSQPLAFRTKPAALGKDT
Kind of assay: SPR. On the technique in general: Surface plasmon resonance follows binding to a sensor surface in real time, without labels.

The term Kd denotes the free concentration of one partner at which half of the binding sites on the other are occupied at equilibrium, for simple one-to-one binding.

B1: SHR-1916, PEGylated interleukin-2 analogue (IL-2 N26Q/N29S/F42A/N71Q/L72G/C125A with a 20 kDa PEG at the N-terminus) (ligand)
chain: APTSSSTKKTQLQLEHLLLDLQMILQGISNYKNPKLTRMLTAKFYMPKKATELKHLQCLEEELKPLEEVLQGAQSKNFHLRPRDLISNINVIVLELKGSETTFMCEYADETATIVEFLNRWITFAQSIISTLT
modifications: 20 kDa PEG on the N-terminal amine group
Take B1: the Kd came out at 1710 nM.
